Measured values: patent publication US20040077031A1, “Novel methionine aminopeptidase-2 and uses thereof” (priority 2002, published 2004)

Columns and labels:
Assay in all cases: Kinetic constants of MetAP2 with Mn2+ on peptide substrates (chromogenic assay)
Assay type in all cases: biochemical, human
Details in all cases: other: MetAP2 with 100 μM Mn2+; pH 7.4
[1] = substrate: CSCC[C@H](N)C(=O)NCC(=O)N[C@@H](C)C(=O)N[C@@H](CCC(N)=O)C(=O)N[C@@H](Cc1ccccc1)C(=O)N[C@@H](CO)C(=O)N[C@@H](CCCCN)C(=O)N[C@H](C(=O)O)[C@@H](C)O
Description: (§1) A coupled-enzyme chromogenic assay was used to measure methionine aminopeptidase activity by monitoring the production of free methionine cleaved from specific peptide substrates containing methionine. […] Free methionine was oxidized with L-amino acid oxidase (AAO, Sigma Catalog No. A-9378) and horseradish peroxidase (HRP, Sigma Catalog No. P-8451). Oxidation by AAO of free methionine generates hydrogen peroxide (H2O2) which then reacts with HRP oxidizing 0-dianisidine (Sigma Catalog No. D-1954) or 10-acetyl-3,7-dihydrophenoxazine (Amplex Red, Molecular Probes). Assays were performed in 96-well microtiter plates. Enzyme preparations were diluted in assay buffer (50 mM HEPES, pH 7.4, 100 mM NaCl), and 10 μl of the enzymes were introduced into each well. A mixture (90 μl) of 0.1 mg/ml L-amino acid oxidase, 0.1 mg/ml of horseradish peroxidase, 0.1 mg/ml ortho-dianisidine, and 0.5 mM peptide substrate was added to each cell. The reactions were carried out at room temperature, and the absorbance at 450 nanometer (A450) was measured every 20 seconds over a period of twenty minutes using an automatic plate reader (Molecular Devices, Calif., USA). The rate in mOD/min, calculated for each well, was used to represent MetAP1 or MetAP2 activity. Under this assay condition, the methionine cleaved from peptide substrate by MetAP1 or MetAP2 was instantaneously oxidized to generate a final A450 readout. It was determined that 1 μM methionine generated a 2.25 mOD increase in the A450 readout.
(§2) MetAP2 using Mn^2+ as cofactor was studied to obtain kinetic constants on several peptide substrates. […] Enzyme kinetics was studied using the chromogenic assay to determine enzymatic activity as described in Example 3. […] These peptides were tested at a final concentration of 20, 40, 80, 160, 320, and 640 μM in the assay buffer (50 mM HEPES, pH 7.4, 100 mM NaCl). […] The initial rate of methionine cleavage was determined by measuring the A450 change as described above. Kinetic constants were calculated using Linewaver-Burk plots.

[2] = substrate: CSCC[C@H](N)C(=O)NCC(=O)N[C@@H](CC(N)=O)C(=O)N[C@@H](C)C(=O)N[C@@H](C)C(=O)N[C@@H](C)C(=O)N[C@@H](C)C(=O)N[C@@H](CCCCN)C(=O)O
Description: as §1, §2

[3] = substrate: CSCC[C@H](N)C(=O)NCC(=O)N[C@@H](CC(N)=O)C(=O)N[C@@H](CC(C)C)C(=O)N[C@@H](CCCCN)C(=O)N[C@@H](CO)C(=O)N[C@H](C(=O)N[C@@H](C)C(=O)O)C(C)C
Description: as §1, §2

[4] = substrate: CSCC[C@H](N)C(=O)NCC(=O)N[C@@H](CCCCN)C(=O)N[C@H](C(=O)N[C@@H](CCCCN)C(=O)N[C@H](C(=O)NCC(=O)N[C@H](C(=O)N[C@@H](CC(N)=O)C(=O)NCC(=O)N[C@@H](Cc1ccccc1)C(=O)O)C(C)C)C(C)C)C(C)C
Description: as §1, §2

[5] = substrate: CSCC[C@H](N)C(=O)NCC(=O)N[C@@H](CCCCN)C(=O)N[C@H](C(=O)N[C@@H](CCCCN)C(=O)N[C@H](C(=O)NCC(=O)N[C@H](C(=O)N[C@@H](CC(N)=O)C(=O)NCC(=O)O)C(C)C)C(C)C)C(C)C
Description: as §1, §2

[6] = substrate: CSCC[C@H](N)C(=O)NCC(=O)N[C@@H](CCCCN)C(=O)N[C@H](C(=O)N[C@@H](CCCCN)C(=O)N[C@H](C(=O)NCC(=O)N[C@H](C(=O)N[C@@H](CC(N)=O)C(=O)O)C(C)C)C(C)C)C(C)C
Description: as §1, §2

[7] = substrate: CSCC[C@H](N)C(=O)NCC(=O)N[C@@H](CCCCN)C(=O)N[C@H](C(=O)N[C@@H](CCCCN)C(=O)N[C@H](C(=O)O)C(C)C)C(C)C
Description: as §1, §2

[8] = substrate: CSCC[C@H](N)C(=O)NCC(=O)N[C@@H](CCCCN)C(=O)N[C@H](C(=O)N[C@@H](CCCCN)C(=O)O)C(C)C
Description: as §1, §2

[9] = substrate: CSCC[C@H](N)C(=O)NCC(=O)N[C@@H](CCCCN)C(=O)N[C@H](C(=O)O)C(C)C
Description: as §1, §2

[10] = substrate: CSCC[C@H](N)C(=O)NCC(=O)N[C@@H](CCCCN)C(=O)O
Description: as §1, §2

[11] = substrate: CSCC[C@H](N)C(=O)NCC(=O)N[C@@H](CO)C(=O)N[C@@H](CO)C(=O)N[C@@H](CCCCN)C(=O)N[C@@H](CO)C(=O)N[C@@H](CCCCN)C(=O)N1CCC[C@H]1C(=O)O
Description: as §1, §2

[12] = substrate: CSCC[C@H](N)C(=O)N[C@@H](C)C(=O)N[C@@H](CO)C(=O)O
Description: as §1, §2

B1: MetAP2 (Homo sapiens) (protein)
chain: MAGVEEVAASGSHLNGDLDPDDREEGAASTAEEAAKKKRRKKKKSKGPSAAGEQEPDKESGASVDEVARQLERSALEDKERDEDDEDGDGDGDGATGKKKKKKKKKRGPKVQTDPPSVPICDLYPNGVFPKGQECEYPPTQDGRTAAWRTTSEEKKALDQASEEIWNDFREAAEAHRQVRKYVMSWIKPGMTMIEICEKLEDCSRKLIKENGLNAGLAFPTGCSLNNCAAHYTPNAGDTTVLQYDDICKIDFGTHISGRIIDCAFTVTFNPKYDTLLKAVKDATNTGIKCAGIDVRLCDVGEAIQEVMESYEVEIDGKTYQVKPIRNLNGHSIGQYRIHAGKTVPIVKGGEATRMEEGEVYAIETFGSTGKGVVHDDMECSHYMKNFDVGHVPIRLPRTKHLLNVINENFGTLAFCRRWLDRLGESKYLMALKNLCDLGIVDPYPPLCDIKGSYTAQFEHTILLRPTCKEVVSRGDDY
notes: gp67 secretion signal of vector pAcGP67B (N); made in house; host or cells: baculovirus-infected Sf9 insect cells, secreted into medium
Km [1]: 224.4 µM
kcat [1]: 4.87 s⁻¹
kcat/Km [1]: 21700 M⁻¹ s⁻¹
Km [2]: 259.9 µM
kcat [2]: 3.78 s⁻¹
kcat/Km [2]: 15000 M⁻¹ s⁻¹
Km [3]: 208.3 µM
kcat [3]: 4.87 s⁻¹
kcat/Km [3]: 23300 M⁻¹ s⁻¹
Km [4]: 131.3 µM
kcat [4]: 9.43 s⁻¹
kcat/Km [4]: 71700 M⁻¹ s⁻¹
Km [5]: 163.6 µM
kcat [5]: 10.2 s⁻¹
kcat/Km [5]: 61700 M⁻¹ s⁻¹
Km [6]: 205.0 µM
kcat [6]: 10.2 s⁻¹
kcat/Km [6]: 50000 M⁻¹ s⁻¹
Km [7]: 149.3 µM
kcat [7]: 8.53 s⁻¹
kcat/Km [7]: 56700 M⁻¹ s⁻¹
Km [8]: 188.1 µM
kcat [8]: 10.4 s⁻¹
kcat/Km [8]: 55000 M⁻¹ s⁻¹
Km [9]: 623.7 µM
kcat [9]: 6.7 s⁻¹
kcat/Km [9]: 10000 M⁻¹ s⁻¹
Km [10]: 757.6 µM
kcat [10]: 3.32 s⁻¹
kcat/Km [10]: 5000 M⁻¹ s⁻¹
Km [11]: 233.1 µM
kcat [11]: 3.94 s⁻¹
kcat/Km [11]: 16700 M⁻¹ s⁻¹
Km [12]: 211.5 µM
kcat [12]: 2.54 s⁻¹
kcat/Km [12]: 12000 M⁻¹ s⁻¹
